Experimental data published in PMC3357421, “Conserved Orb6 Phosphorylation Sites Are Essential for Polarized Cell Growth in Schizosaccharomyces pombe” (PLoS ONE, 2012).

Molecular target: T1, His6-HA-Nak1 (S. pombe, UniProt O75011 1-652)
T1 construct: Nak1, Ser/Thr kinase of fission yeast (Schizosaccharomyces pombe); HA-Nak1 inserted into pET33b; also called pET33b-His6-HA-Nak1; source: E. coli BL21, purified (NiNTA agarose)
T1 sequence (looked up): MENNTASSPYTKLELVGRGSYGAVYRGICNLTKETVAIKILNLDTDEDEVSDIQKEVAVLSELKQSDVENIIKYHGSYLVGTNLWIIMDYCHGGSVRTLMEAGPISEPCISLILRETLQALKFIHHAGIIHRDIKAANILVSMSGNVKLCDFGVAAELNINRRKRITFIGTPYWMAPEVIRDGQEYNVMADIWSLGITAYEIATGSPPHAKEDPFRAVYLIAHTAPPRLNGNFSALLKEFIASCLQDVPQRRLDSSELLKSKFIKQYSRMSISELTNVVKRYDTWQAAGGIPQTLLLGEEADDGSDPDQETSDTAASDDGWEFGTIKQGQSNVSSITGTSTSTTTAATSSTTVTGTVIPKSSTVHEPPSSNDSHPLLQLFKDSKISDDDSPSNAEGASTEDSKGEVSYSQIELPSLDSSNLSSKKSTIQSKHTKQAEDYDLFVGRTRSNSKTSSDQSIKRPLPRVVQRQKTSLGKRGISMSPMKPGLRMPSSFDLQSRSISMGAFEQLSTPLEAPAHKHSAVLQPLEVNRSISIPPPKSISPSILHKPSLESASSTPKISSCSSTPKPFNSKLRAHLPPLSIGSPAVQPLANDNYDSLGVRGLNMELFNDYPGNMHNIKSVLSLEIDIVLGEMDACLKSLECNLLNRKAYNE
Test: pull-down; GST or GST-Orb6 bound to Glutathione Sepharose 4B beads incubated with His6-HA-Nak1 for 2 h; washed 3 times with 150 mM NaCl, 1 mM DTT, phosphate pH 7.3; western blot with anti-HA (12CA5)
Details: both partners purified

- binding result: binds
B1: GST-Orb6 (enzyme, S. pombe, UniProt O13310 1-469, looked up)
chain: MDKNDYLHFERNPSLFPKSTLDKVQKTKKYIEHYYKVAVDHAVERNQRRINLEQRLATERGSEERKNRQLRASGEKESQFLRFRRTRLSLEDFSTIKVIGKGAFGEVRLVQKLDTGKIYAMKSLLKTEMFKRDQLAHVKAERDLLVESDSPWVVSLYYAFQDSLYLYLIMEFLPGGDLMTMLINYDTFSEDVTRFYMAECVLAIADVHRMGYIHRDIKPDNILIDRDGHIKLSDFGLSTGFYKQDQSASYMKPRTGNTVKRGQMVDAIWLTMSSKDKMATWKKNRRVMAYSTVGTPDYIAPEIFLQQGYGQDCDWWSLGAIMFECLIGWPPFCSENSHETYRKIINWRETLTFPNDIHLSIEARDLMDRLMTDSEHRLGRGGAIEIMQHPFFTGIDWDHIRETAAPFIPNLKSITDTHYFPVDELEQVPEQPVTQQPASVDPQTLEQTNLAFLGYTYKKFNYLTMKGAL
notes: Orb6, Ndr-related Ser/Thr kinase of fission yeast (Schizosaccharomyces pombe); PCR-amplified cDNA fragment encoding Orb6 in pGEX-5X-1 (a pGEX-6p-1 construct was also made); also called pGEX-5X-1-Orb6; source: E. coli BL21, purified (Glutathione Sepharose 4B)
